According to patent US20230374116A1 (ROSALIND FRANKLIN INSTITUTE, published 2023):

Experiments:
[1] = molecular target: Spike protein on live SARS-CoV-2 Victoria strain (SARS-CoV-2 (Victoria), UniProt P0DTC2 14-1273); assay: cell-based or functional assay
[2] = molecular target: T1, SARS-CoV-2 receptor-binding domain fused to hIgG1 Fc (SARS-CoV-2 (Wuhan/Victoria), UniProt P0DTC2 330-532); assay: SPR, trimer analyte, RBD ligand
[3] = molecular target: T2, SARS-CoV-2 receptor-binding domain (amino acids 330-532), prototypical Wuhan/Victoria (SARS-CoV-2 (Wuhan/Victoria), UniProt P0DTC2 330-532); assay: SPR, VHH analyte over immobilised RBD
[4] = molecular target: T2, SARS-CoV-2 receptor-binding domain …; assay: SPR, VHH analyte, biotinylated RBD ligand
[5] = molecular target: T2, SARS-CoV-2 receptor-binding domain …; assay: SPR, RBD binding kinetics
[6] = molecular target: T2, SARS-CoV-2 receptor-binding domain …; assay: SPR
[7] = molecular target: T1, SARS-CoV-2 receptor-binding domain …; assay: SPR, VHH analyte over immobilised RBD

B1: A8 trimer (bispecific antibody)
chain: QVQLVESGGGLVQAGGSLRLSCAASGGTFSTAAMGWFRQAPGEERECVASIGWRGVRTWYADSVKGRFTISRDNPQNTVYLQMNNLKSGDTAVYYCAASVGNYGLPWAHFEYDFWGQGIQVTVSSGSGSGSQVQLVESGGGLVQAGGSLRLSCAASGGTFSTAAMGWFRQAPGEERECVASIGWRGVRTWYADSVKGRFTISRDNPQNTVYLQMNNLKSGDTAVYYCAASVGNYGLPWAHFEYDFWGQGIQVTVSSGSGSGSQVQLVESGGGLVQAGGSLRLSCAASGGTFSTAAMGWFRQAPGEERECVASIGWRGVRTWYADSVKGRFTISRDNPQNTVYLQMNNLKSGDTAVYYCAASVGNYGLPWAHFEYDFWGQGTQVTVSSKHHHHHH
With B1 the “ND 50 MN assay, live virus” value [1] was 0.09 nM, the Kd [2] was 5 pM and the T1/2 [2] was 4.63 h.

B2: F2 (VHH)
VHH: QVQLVESGGGLVQAGGSLRLACIASGRTFHSYVMAWFRQAPGKEREFVAAISWSSTPTYYGESVKGRFTISRDNAKNTVYLQMNRLKPEDTAVYFCAADRGESYYYTRPTEYEFWGQGTQVTVSS
notes: also called VHH F2
B2 showed a Kd [3] of 40 pM and a Kd [4] of 40 pM.

B3: C1-SUMO-H3-Fc (Fc fusion)
chain: QVQLVESGGGLVQPGGSLRLSCAASGFTNDFYSIAWFRQAPGKEREGVSWLSVSDNTPTYVDSVKDRFTISRHNANNTVYLQMNMLKPEDTAIYYCAAGRFAGRDTWPSSYDYWGQGTQVTVSSGSGSGSDSEVNQEAKPEVKPEVKPETHINLKVSDGSSEIFFKIKKTTPLRRLMEAFAKRQGKEMDSLRFLYDGIRIQADQTPEDLDMEDNDIIEAHREQIGSGSGSQVQLVESGGGLVKTGGSLRLSCAASGRTFSTYSMGWFRQAPGKEREFVAGMRWTGSSTFYSDSVKGRFTVSRNNAKDTVYLHMNSLKPEDTAVYYCAITTIVRAYYTEYTEADFGSWGQGTQVTVS
notes: also called C1-GSGSGS-SUMO-GSGSGS-H3
Work on B3 yielded a Kd [5] of 11 pM, a T1/2 [5] of 4.1 h and a koff [5] of 4.7e-05 s⁻¹. For the same binder, the kon [5] was 4.3e+06 M⁻¹ s⁻¹ and the “fold increase in affinity on combining the VHHs” value (from here on “fold increase in affinity”) [6] was about 40 fold.

B4: C1-SUMO-C5-Fc (Fc fusion)
chain: QVQLVESGGGLVQPGGSLRLSCAASGFTNDFYSIAWFRQAPGKEREGVSWLSVSDNTPTYVDSVKDRFTISRHNANNTVYLQMNMLKPEDTAIYYCAAGRFAGRDTWPSSYDYWGQGTQVTVSSGSGSGSDSEVNQEAKPEVKPEVKPETHINLKVSDGSSEIFFKIKKTTPLRRLMEAFAKRQGKEMDSLRFLYDGIRIQADQTPEDLDMEDNDIIEAHREQIGSGSGSQVQLVESGGGSVQAGGSLTLSCVASGVTLGRHAIGWFRQAPGKERERVSCIRTFDGITSYVESTKGRFTISSNNAMNTVYLQMNSLKPEDTAVYFCALGVTAACSDNPYFWGQGTQVTVSS
notes: also called C1-GSGSGS-SUMO-GSGSGS-C5
Binder B4 has a Kd [5] of 1.63 pM, a T1/2 [5] of 246 h and a koff [5] of 4.9e-05 s⁻¹. For the same binder, the kon [5] was 3e+07 M⁻¹ s⁻¹ and the “fold increase in affinity” value [6] was about 240 fold.

B5: H3 trimer (VHH)
chain: QVQLVESGGGLVKTGGSLRLSCAASGRTFSTYSMGWFRQAPGKEREFVAGMRWTGSSTFYSDSVKGRFTVSRNNAKDTVYLHMNSLKPEDTAVYYCAITTIVRAYYTEYTEADFGSWGQGTQVTVSSGAVLAPQVQLVESGGGLVKTGGSLRLSCAASGRTFSTYSMGWFRQAPGKEREFVAGMRWTGSSTFYSDSVKGRFTVSRNNAKDTVYLHMNSLKPEDTAVYYCAITTIVRAYYTEYTEADFGSWGQGTQVTVSSGSGSGSQVQLVESGGGLVKTGGSLRLSCAASGRTFSTYSMGWFRQAPGKEREFVAGMRWTGSSTFYSDSVKGRFTVSRNNAKDTVYLHMNSLKPEDTAVYYCAITTIVRAYYTEYTEADFGSWGQGTQVTVSS
In the case of B5, the “ND 50 MN assay, live virus” value [1] is reported as 0.4 nM, the Kd [2] is reported as 0.3 pM and the T1/2 [2] is reported as 5.82 h. The koff [2] was 3.3e-05 s⁻¹ and the kon [2] was 1.2e+08 M⁻¹ s⁻¹.

B6: C5 trimer (VHH)
chain: QVQLVESGGGSVQAGGSLTLSCVASGVTLGRHAIGWFRQAPGKERERVSCIRTFDGITSYVESTKGRFTISSNNAMNTVYLQMNSLKPEDTAVYFCALGVTAACSDNPYFWGQGTQVTVSSGSGSGSQVQLVESGGGSVQAGGSLTLSCVASGVTLGRHAIGWFRQAPGKERERVSCIRTFDGITSYVESTKGRFTISSNNAMNTVYLQMNSLKPEDTAVYFCALGVTAACSDNPYFWGQGTQVTVSSGSGSGSQVQLVESGGGSVQAGGSLTLSCVASGVTLGRHAIGWFRQAPGKERERVSCIRTFDGITSYVESTKGRFTISSNNAMNTVYLQMNSLKPEDTAVYFCALGVTAACSDNPYFWGQGTQVTVSS
notes: also called trimeric C5 nanobody; C5-6GS-C5-6GS-C5
With B6 the “ND 50 MN assay, live virus” value [1] was 0.02 nM, the Kd [2] was 18 pM and the T1/2 [2] was 1.53 h.

B7: H3 (VHH)
VHH: QVQLVESGGGLVKTGGSLRLSCAASGRTFSTYSMGWFRQAPGKEREFVAGMRWTGSSTFYSDSVKGRFTVSRNNAKDTVYLHMNSLKPEDTAVYYCAITTIVRAYYTEYTEADFGSWGQGTQVTVSS
Work on B7 yielded a Kd [3] of 25 pM, a T1/2 [3] of 0.583 h and a Kd [4] of 25 pM. For the same binder, the T1/2 [4] was 0.583 h.

B8: C1 (VHH)
VHH: QVQLVESGGGLVQPGGSLRLSCAASGFTNDFYSIAWFRQAPGKEREGVSWLSVSDNTPTYVDSVKDRFTISRHNANNTVYLQMNMLKPEDTAIYYCAAGRFAGRDTWPSSYDYWGQGTQVTVSS
Work on B8 yielded a Kd [3] of 615 pM and a Kd [4] of 615 pM.

B9: C1-SUMO-H11-H4-Fc (Fc fusion)
chain: QVQLVESGGGLVQPGGSLRLSCAASGFTNDFYSIAWFRQAPGKEREGVSWLSVSDNTPTYVDSVKDRFTISRHNANNTVYLQMNMLKPEDTAIYYCAAGRFAGRDTWPSSYDYWGQGTQVTVSSGSGSGSDSEVNQEAKPEVKPEVKPETHINLKVSDGSSEIFFKIKKTTPLRRLMEAFAKRQGKEMDSLRFLYDGIRIQADQTPEDLDMEDNDIIEAHREQIGSGSGSQVQLVESGGGLMQAGGSLRLSCAVSGRTFSTAAMGWFRQAPGKEREFVAAIRWSGGSAYYADSVKGRFTISRDKAKNTVYLQMNSLKYEDTAVYYCAQTHYVSYLLSDYATWPYDYWGQGTQVTVSS
notes: also called C1-GSGSGS-SUMO-GSGSGS-H11-H4
With B9 the Kd [5] was 13 pM, the T1/2 [5] was 2.8 h and the koff [5] was 6.8e-05 s⁻¹. For the same binder, the kon [5] was 5.1e+06 M⁻¹ s⁻¹ and the “fold increase in affinity” value [6] was about 40 fold.

B10: B12 (VHH)
VHH: QVQLVESGGGFVQPGGSLRLSCAVSGGTFSTYGMGWFRQAPGKEREIVAAIRRSGSTYYADSVRGRFTISRDNAKNSVLLQMNSLKPEDTAVYYCAARRAGREYEYWGQGTQVTVSS
notes: also called VHH B12
B10 showed a Kd [7] of 77 pM, a T1/2 [7] of 0.7 h and a koff [7] of 0.00027 s⁻¹. It also gave a kon [7] of 3.6e+06 M⁻¹ s⁻¹.

B11: C1 trimer (VHH)
chain: QVQLVESGGGLVQPGGSLRLSCAASGFTNDFYSIAWFRQAPGKEREGVSWLSVSDNTPTYVDSVKDRFTISRHNANNTVYLQMNMLKPEDTAIYYCAAGRFAGRDTWPSSYDYWGQGTQVTVSSGSGSGSQVQLVESGGGLVQPGGSLRLSCAASGFTNDFYSIAWFRQAPGKEREGVSWLSVSDNTPTYVDSVKDRFTISRHNANNTVYLQMNMLKPEDTAIYYCAAGRFAGRDTWPSSYDYWGQGTQVTVSSGSGSGSQVQLVESGGGLVQPGGSLRLSCAASGFTNDFYSIAWFRQAPGKEREGVSWLSVSDNTPTYVDSVKDRFTISRHNANNTVYLQMNMLKPEDTAIYYCAAGRFAGRDTWPSSYDYWGQGTQVTVSS
In the case of B11, the “ND 50 MN assay, live virus” value [1] is reported as 4.9 nM, the Kd [2] is reported as 53 pM and the T1/2 [2] is reported as 4.03 h. For the same binder, the koff [2] was 4.8e-05 s⁻¹ and the kon [2] was 900000 M⁻¹ s⁻¹.
